Experimental findings from PMC2139957 are described below.

Data set [1] in a line: steady-state domain-selective surface biotinylation, immunoblot. As to conditions: glycan lost; control: ΔBS p75NTR.
Data set [2] can be described thus: pulse-chase, ER-to-Golgi transport by O-glycan acquisition. The settings on record: glycan lost; control: native rat p75NTR.

For the molecule “p75NTR (p75 neurotrophin receptor): N32D/ΔBS”, in data set [1], the “localisation_or_trafficking, other: percent apical” value is “no change, <10 vs <10”.

B1: p75NTR (p75 neurotrophin receptor): N32D (protein)
parent chain: MRRAGAACSAMDRLRLLLLLILGVSSGGAKETCSTGLYTHSGECCKACNLGEGVAQPCGANQTVCEPCLDNVTFSDVVSATEPCKPCTECLGLQSMSAPCVEADDAVCRCAYGYYQDEETGHCEACSVCEVGSGLVFSCQDKQNTVCEECPEGTYSDEANHVDPCLPCTVCEDTERQLRECTPWADAECEEIPGRWIPRSTPPEGSDSTAPSTQEPEVPPEQDLVPSTVADMVTTVMGSSQPVVTRGTTDNLIPVYCSILAAVVVGLVAYIAFKRWNSCKQNKQGANSRPVNQTPPPEGEKLHSDSGISVDSQSLHDQQTHTQTASGQALKGDGNLYSSLPLTKREEVEKLLNGDTWRHLAGELGYQPEHIDSFTHEACPVRALLASWGAQDSATLDALLAALRRIQRADIVESLCSESTATSPV
For B1, the “localisation_or_trafficking, other: half-time of ER-to-Golgi transport” value in data set [2] is on record as “no change, 35–40 vs 35–40”.
